From patent US20140186340A1, “Methods and Compositions for Normalization of Tumor Vasculature by Inhibition of LOXL2” (GILEAD BIOLOGICS, INC., priority 2011, published 2014)

Columns and labels:
[1] = system: SKOV3 ovarian carcinoma cells; assay: SKOV3 tumor xenograft, tumor growth; type: in vivo, mice; conditions: twice weekly i.p., AB0023 15 mg/kg, taxol 5 mg/kg, monitored 40 days, vs vehicle controls
Method: (§1) SKOV3 ovarian carcinoma cells were obtained from ATCC, Manassas, Va. 5×10^6 cells, suspended in 50% (v/v) Matrigel, were implanted subcutaneously in female athymic nude mice. After tumors attained a volume of 100 mm^3, the mice received twice weekly intra-peritoneal injections of vehicle, anti-LOXL2 antibody AB0023 (15 mg/kg), taxol (5 mg/kg) or a combination of taxol and AB0023. The experiment was terminated when tumors from control (vehicle-treated) animals attained an average volume of 1,000 mm^3, at which point the animals were sacrificed, tumors were removed and snap-frozen, and 5 μm thick frozen sections were prepared from the frozen tumors.
Female athymic nude mice were implanted with SKOV3 ovarian carcinoma cells which, when transplanted, form highly vascularized subcutaneous tumors. Expression of LOXL2 in these tumors was confirmed by immunohistochemistry; it was noted that most of the LOXL2 immunostaining was associated with vascular structures. When the average tumor volume of the population reached 100 mm^3, the mice were treated twice weekly with intra-peritoneal injections of the anti-LOXL2 antibody AB0023 (15 mg/kg), taxol (5 mg/kg) or a combination of AB0023 and taxol at the concentrations given above. Control mice received injection of vehicle (PBST). Tumor growth was monitored for 40 days.

SKOV3-derived tumors [2] = assay: SKOV3 xenograft, tumor hypoxia by carbonic anhydrase IX (CA9) levels; type: in vivo, mice; conditions: vs vehicle
Method: as §1
Sections were fixed with 4% paraformaldehyde and blocked using Peroxidazed 1 and Background Sniper (Biocare Medical, Concord, Calif.) before incubation with primary antibody. Anti-CA9 antibody (Abcam) was applied and Mach2 HRP-polymer (Biocare Medical) was used as secondary antibody. All sections were dehydrated through a series of ethanol dilutions and xylene, mounted using a resinous medium, and visualized using DAB chromogen.
Mice with SKOV3-derived tumors, as described in Example 4, were treated with AB0023 and/or taxol; and the effects on levels of carbonic anhydrase IX (CA9), a marker of hypoxia, were determined. […] Thus, inhibition of LOXL2 reduces vessel density and reduces hypoxia in tumors.

[3] = system: bFGF-induced angiogenesis; assay: Matrigel plug assay, flow cytometric analysis; type: in vivo, mice; conditions: plugs harvested 7 days after implantation, vs vehicle
Method: The anti-angiogenic effects of systemic AB0023 administration in the Matrigel plug assay system were also assessed using flow cytometry to assay for cells expressing CD31, and for CD45-negative cells that express the vascular endothelial growth factor receptor VEGFR2 (an angiogenic marker). Analysis was conducted according to the method described by Adini et al. (2009) J. Immunol. Meth. 342:78-81.

[4] = system: human umbilical vein endothelial cells (HUVEC); assay: Tube formation on Matrigel by HUVEC; type: cell-based; conditions: antibody 1 ug/ml, compared to control antibody AC-1; bFGF 5 ng/ml, 24 hours
Source text: (§2) HUVEC were isolated from umbilical veins and cultured as described. Gospodarowicz et al. (1983) J. Cell Biol. 97:1677-1685; Kigel et al. (2008) PLoS One 3:e3278. Recombinant human bFGF was produced and purified according to Tessler et al. (1990) J. Cell. Physiol. 145:310-317. For inhibition of LOXL2 expression by shRNA, lentiviruses directing expression of a LOXL2-targeted shRNA and a control shRNA were generated and used to infect HUVEC as described. Brekhman et al. (2009) BMC Cancer 9:415. The anti-LOXL2 monoclonal antibody (AB0023) has been described. See, e.g., Rodriguez et al. (2010) J. Biol. Chem. 285:20964-20974 and United States Patent Application Publication No. 2009/0053224 (Feb. 26, 2009).
Tube formation on Matrigel was carried out as described. Varshaysky et al. (2008) Cancer Res. 68:6922-2931. For shRNA inhibition HUVEC, infected with either shLOXL2-encoding or control lentivirus, were seeded in Matrigel-coated 48 well tissue culture plates (1.6×10^4 cells/well) and incubated with growth medium supplemented with bFGF (5 ng/ml) for 24 hours. […] Phase-contrast images were photographed at 63× magnification and bifurcations-per-field of tube structures in microscopic fields were quantified by manual counting.

SKOV3-derived tumors [5] = assay: SKOV3 xenograft, tumor vessel number by CD31 immunoreactivity; type: in vivo, mice; conditions: vs vehicle-treated animals; p<0.01
Method: as §1
(§3) For assessment of perfusion, the animals were injected intravenously with Hoechst 33342 (40 mg/kg) one minute prior to sacrifice and tumor removal was performed as described by Franco et al. (2006) Cancer Res. 66:3639-3648 and Rijken et al. (2000) Int. […] Bound anti-CD31 was detected with a goat anti-rat CY3-labeled antibody (Jackson Laboratories, Bar Harbor, Me.) and bound NG2 antibodies were detected with a Cy2-labeled anti-rabbit antibody (Jackson Laboratories, Bar Harbor, Me.). The stained sections were visualized using a confocal microscope or a Leica CTR 6000 microscope, and at least five microscopic fields were analyzed in each section. For analysis of perfusion, the coincidence of CD31-staining and Hoechst dye fluorescence was assessed. […]

[6] = system: bFGF-induced angiogenesis; assay: Matrigel plug assay, vessel counting and immunohistochemistry; type: in vivo, mice
Method: To determine if inhibition of LOXL2 could modulate angiogenesis in vivo, we examined the effects of the anti-LOXL2 antibody AB0023 on bFGF-induced angiogenesis, using a Matrigel plug assay. Kessler et al. (2004) Cancer Res. 64:1008-1015; Kibbey et al. (1992) J. Natl. Cancer Inst. 84:1633-1638.
For these experiments, either AB0023, at a concentration of 30 mg/kg, or vehicle (PBS+0.01% Tween-20) were injected intraperitoneally (30 mg/kg or equivalent volume) twice weekly into athymic female Ncr:Nu/Nu mice. After one week the mice were injected subcutaneously with 250 or 500 μl Matrigel (BD Biosciences, San Jose, Calif.) supplemented with 100 ng/ml human bFGF (Peprotech, Rocky Hill, N.J.) and 40 or 60 U heparin (Sigma, St. Louis, Mo.). Matrigel plugs were harvested after 10 days, excised together with attached skin, fixed in 10% neutral buffered formalin, and embedded in paraffin. Immunohistochemical analysis was performed on 5 μm serial sections with anti-CD31, anti-CD34, and anti-NG2 antibodies. 2 step sections separated by […] were analyzed per plug. Three representative 10× microscopic fields were selected per section per step, for a total of 6 fields per plug.
Immunohistochemical analysis was performed with anti-CD34 antibody on one representative section from each plug. Three representative 10× fields were selected per section for quantitation. For all IHC analysis of plugs, the mean area of signal was determined for each treatment group using Metamorph software (Molecular Devices).

[7] = system: human umbilical vein endothelial cells (HUVEC); assay: bFGF-induced HUVEC migration assay (transwell); type: cell-based; conditions: antibody 10 μg/ml, compared to control antibody AC-1; 5 hours
Method: To determine whether LOXL2 activity contributes to bFGF-induced migration of human umbilical vein endothelial cells (HUVEC), experiments were conducted in which expression of LOXL2 was inhibited using a LOXL2-targeted shRNA, and LOXL2 activity was inhibited using an anti-LOXL2 antibody.
as §2
For migration assays, HUVEC were seeded in transwell culture dishes (8 μm pores, 3×10^4 cells/well) coated with fibronectin (10 μg/ml, Biological Industries) in 200 μl of M199 medium containing 20% fetal calf serum. […] After 5 hours, cells that had migrated were fixed for 20 minutes with 4% paraformaldehyde, washed three times with PBS, stained with 0.05% crystal violet for 10 minutes, photographed, and counted.

SKOV3-derived tumors [8] = assay: SKOV3 xenograft, tumor perfusion by Hoechst 33342 / CD31 coincidence; type: in vivo; conditions: Hoechst 33342 40 mg/kg i.v. one minute before sacrifice; vs control mice; p<0.05
Method: as §1, §3

SKOV3-derived tumors [9] = assay: SKOV3 xenograft, pericytes by NG2 and CD31 staining; type: in vivo, mice; conditions: vs vehicle
Method: as §1, §3

[10] = independent experiment, vs vehicle

Molecule | tumor growth (increase in tumor volume) [1] | effect on CA9 levels in tumors (SKOV3-derived tumors [2]; taxol 5 mg/kg twice weekly i.p.) | number of CD31+ cells in plugs (flow cytometry) [3] | number of VEGFR-2+/CD45- endothelial cells in plugs (flow cytometry) [3] | tube formation on Matrigel [4] | CD31 immunoreactivity in tumors (concentration of tumor-associated blood vessels) (SKOV3-derived tumors [5]) | number of blood vessels in Matrigel plugs (whole plug vessel counting) ([6]; 30 mg/kg i.p. twice weekly, athymic Ncr:Nu/Nu mice, plugs after 10 days, vs vehicle) | CD31 levels in Matrigel plug sections ([6]; 30 mg/kg i.p. twice weekly, plugs after 10 days, vs vehicle) | CD34 immunoreactivity in implanted plugs ([6]; further study, vs vehicle and control antibody AC-1) | staining for CD34 in Matrigel plugs [6, 10] | staining for pericyte marker NG2 in Matrigel plugs [6, 10] | bFGF-induced cell migration of HUVEC [7] | reduction in CA9 levels in tumors (SKOV3-derived tumors [2]; AB0023 15 mg/kg twice weekly i.p., p<0.05) | tumor perfusion (Hoechst staining associated with CD31-positive vessels) (SKOV3-derived tumors [8]) | total number of NG2-expressing cells in tumors (SKOV3-derived tumors [9]) | concentration of vessel-associated pericytes in tumors (correspondence of CD31 and NG2 staining) (SKOV3-derived tumors [9]; p<0.01)
CC(=O)O[C@H]1C(=O)[C@@]2(C)[C@H]([C@H](OC(=O)c3ccccc3)[C@]3(O)C[C@H](OC(=O)[C@H](O)[C@@H](NC(=O)c4ccccc4)c4ccccc4)C(C)=C1C3(C)C)[C@]1(OC(C)=O)CO[C@@H]1C[C@@H]2O [taxol, paclitaxel, reference compound] | small, statistically insignificant inhibition | did not have a statistically significant effect | – | – | – | – | – | – | – | – | – | – | – | – | – | –
AB0023: mouse monoclonal antibody directed against LOXL2; heavy and light chain variable regions SEQ ID NO:1 and 2 (antibody, listed as Mus musculus, V domains shown) VH: MEWSRVFIFLLSVTAGVHSQVQLQQSGAELVRPGTSVKVSCKASGYAFTYYLIEWVKQRPGQGLEWIGVINPGSGGTNYNEKFKGKATLTADKSSSTAYMQLSSLTSDDSAVYFCARNWMNFDYWGQGTTLTVSS VL: MRCLAEFLGLLVLWIPGAIGDIVMTQAAPSVSVTPGESVSISCRSSKSLLHSNGNTYLYWFLQRPGQSPQFLIYRMSNLASGVPDRFSGSGSGTAFTLRISRVEAEDVGVYYCMQHLEYPYTFGGGTKLEIK | did not inhibit tumor growth | – | significantly reduced | significantly reduced | inhibited | statistically significant decrease | significant reduction | reduced | loss of CD34 immunoreactivity | significant reduction | significant reduction | inhibited | 66% | better perfusion | not significantly changed | significantly increase
